Measurements published in publication PMC4933900, “Defined enzyme cocktail from the anaerobic fungus Orpinomyces sp. strain C1A effectively releases sugars from pretreated corn stover and switchgrass” (Scientific Reports, 2016).
Values belong to the molecule of their own block, whether it stands above or below them.

What was measured:
EG5 = molecular target: T1, EG5 (Pecoramyces ruminantium, UniProt A0A1B1JH60); assay: endoglucanase assay, CellG3 kit, 2-chloro-4-nitrophenol release; assay type: biochemical; conditions: printed BDL (below detection limit 500 nM); Lineweaver-Burk extrapolation 0.000003999 mM
T1 construct: whole CDS (nt 1-1251 of transcript; protein length 417) cloned; codon-optimised synthetic gene in pET28a(+) NdeI/XhoI, E. coli, purified
Description: endoglucanase assay, CellG3 kit, 2-chloro-4-nitrophenol release on EG5

purified protein = substrate: O=[N+]([O-])c1ccc(O[C@@H]2O[C@H](CO)[C@@H](O)[C@H](O)[C@H]2O)cc1; assay: purified protein; conditions: 0.1 M sodium acetate buffer, 15 min; pH and temperature of kinetics not stated
[1] = substrate: O=[N+]([O-])c1ccc(O[C@@H]2O[C@H](CO)[C@@H](O[C@@H]3O[C@H](CO)[C@@H](O)[C@H](O)[C@H]3O)[C@H](O)[C@H]2O)cc1; assay: cellobiohydrolase assay, p-nitrophenol release; assay type: biochemical, Pecoramyces ruminantium; conditions: 0.1 M sodium acetate buffer, 15 min; pH and temperature of kinetics not stated
[2] = substrate: O=[N+]([O-])c1ccc(O[C@@H]2OC[C@@H](O)[C@H](O)[C@H]2O)cc1; assay: beta-xylosidase assay, p-nitrophenol release; assay type: biochemical, Pecoramyces ruminantium; conditions: 0.1 M sodium acetate buffer, 15 min; pH and temperature of kinetics not stated
[3] = substrate: O=[N+]([O-])c1ccc(O[C@@H]2O[C@H](CO)[C@@H](O[C@@H]3O[C@H](CO)[C@@H](O[C@@H]4O[C@@H]5COC(c6ccccc6)O[C@H]5[C@H](O)[C@H]4O)[C@H](O)[C@H]3O)[C@H](O)[C@H]2O)c(Cl)c1; assay: endoglucanase assay, CellG3 kit, 2-chloro-4-nitrophenol release; assay type: biochemical, Pecoramyces ruminantium; conditions: pH and temperature of kinetics not stated
Description: endoglucanase assay, CellG3 kit, 2-chloro-4-nitrophenol release on Cel48

Km (EG5): < 0.5 µM
Molecule: O=[N+]([O-])c1ccc(O[C@@H]2O[C@H](CO)[C@@H](O[C@@H]3O[C@H](CO)[C@@H](O[C@@H]4O[C@@H]5COC(c6ccccc6)O[C@H]5[C@H](O)[C@H]4O)[C@H](O)[C@H]3O)[C@H](O)[C@H]2O)c(Cl)c1 (some centres unmarked) [CellG3]

B1: XYL11 (Pecoramyces ruminantium) (protein)
chain: GSGTSGTADFPYAKVYIGNQQNQPSYQPTTTRNNSQPTSPATGGSSGEICSASGHSGESTKVTSNKVGSINGIGYELWADSGNNSATFYSDGSFSCTFQNAKDYLCRSGLSFDSTKTHSQIGHLYADFKLVKQGISNVDYSYVGIYGWTRSPLVEFYIVDNWLSQYRPGDWVGNKKHGDFTIDGAQYTVYENTRTGPSIDGNTQFKQYFSIRKTARDCGTIDITAHFQQWEKLGMTMGKMHEAKVLGEAGSNGSGTSGTADFPYAKVYTGS
Km (purified protein): 216 µM | Vmax (purified protein): 0.28 µmol/min/mg

B2: Cel6A (Pecoramyces ruminantium) (protein)
chain: PKSSGGSTTTPVNPGDVDATPGDQLTLSGNPFSGVEFYINPYYVAEVDGAIAQMTDSSLKAKAEKMKTYSNAIWLDTIKNMNSWLESNLKGALAQQTGSKKVLTVFVVYDLPGRDCHALASNGELLANSSDAQRYKTEYIDVIEKHLKTYKSQPVALIVEPDSLANLVTNLESTPACRDSESYYLDGHAYLIKKLGVLPHVAMYLDIGHAFWLGWDDNREKAGKVYAKVIQSGSPGKVRGFTDNVSNYTPWEDPTLSRGPDTEWNPCPDEKRYLEAMHKDFKAAGISSVYFVSDTSRNGHKTDRKHPGEWCNQTGVGIGARPQASPISGMDYLDAFYWIKPLGESDGTSDESAVRFDGYCGHETAMKPAPEAGQWFQKHFEQGLENANPPL
notes: whole CDS (nt 2-1177 of transcript; protein length 391) cloned; codon-optimised synthetic gene in pET28a(+) NdeI/XhoI, E. coli, purified
Km [1]: 228 µM | Vmax [1]: 3.27 µmol/min/mg

B3: EG5 (Pecoramyces ruminantium) (protein)
chain: TLLGLAIIGTKAMRNISSKELVKELTIGWSLGNTLDATCFETLNYAKDQTASETCWGNVKTTQELYYKLNDLGFNTFRIPTTWSGHFGDGPDYKISEAWMKRVHEIVDYALNADGYAILNIHHETWNHAFQKNLESAKKILVAIWKQIAAEFADYDEHLIFEGMNEPRKVGDAAEWNGGDYEGWNFVNEMNDLFVKTIRATGGNNALRHLMIPTYAACVNDGAINNFRFPSGDDKVIVSLHSYSPYNFALNNGAGAISNFNDGSEIDWVMNTINSSFISKGIPVIIGEFGAMNRNNEADREKWAEYYIKKATSLGIPCVIWDNGYFEGEGERFGLIDRKSLNVVYPRLVNGLMKGLGDKKPKTTKVRTTTTTTIQVQPTNNNDCFSTKLGYDCCNGCEVFYTDNDGKWGVENGNWCG
Km (purified protein): 84000 µM | Vmax (purified protein): 0.45 µmol/min/mg

B4: BGL3 (Pecoramyces ruminantium) (protein)
chain: TWEEADAKAREWCSDLTNEEKIALITGRENMTGVCVGSIDPIERKGFKGLCLQDGPAGVRFAKGTATSWQASINTAATFDRTLLRKVGEAQGNEFYQRGINVALAPSMGIQRAPAAGRIFESYGEDPFYVGQCGLEVLKGIQSQGVIANAKHYIANDQENNRGASTSNVPEQALWEVYMEPFYRTVVEGEAGTVMASYNAINGTYSTQNKRLLTDYLKGKLGFKGFVMSDWWAIFDVEKSFGNGTDMNMPGGKYWGPDYVGDSFWGEHIQECIDNGVFPQERLDDAVLRIIRTLYKLDQMDDYPEVNLYVDTNTKENAALNRKVGADSNVLLKNADNILPIKKSKKVKKIAVIGKDSMPPTLCEDMKCANGTLPLGWGSGTTDFKYVVDPLSAITKRAKKSKISVVSYGEDDAKKAAKVAKKADVAIVFVQADSGEEYITVEGNAGDRLNLDLWHGGNELIEAVAAVNKNTIVVIHAPGPVNVPFLDKVKGIIFAGLPGQETGNAITDVLFGDVNPSGHLPYTWAPREDYPTDVKYEPEYPDGGEKMTVYDYNEGLFVGYRWFDKKEIEPTFAFGYGLSYTTFEFSDLEATMEDDGLYVSLTVTNTGKVAGAAVPMIFLSFPESVKDYPIRLFKGFDKVMLKAGESKETTIFIDAHGLSYFDVEKMEYVRPKDGEFTVYAGSNARDLPLNVKVLANGDEI
notes: about residues 22-721; pET28a(+) NdeI/XhoI, codon-optimised, E. coli, purified
Km (purified protein): 275 µM | Vmax (purified protein): 1.55 µmol/min/mg | Km [2]: 50600 µM | Vmax [2]: 0.068 µmol/min/mg

B5: Cel48 (Pecoramyces ruminantium) (protein)
chain: MPSIRTALTLLGASAVIAAPTKRANDAYAQRVIDTYNAVTGNGSYRSDYFSPENVPYHSVETMMVEAPDQGHESVSETYSFWVWLEAINGKMTGNYDGVNTAWSYLEKHIIPDSKNQPGMSRYNSSSPATYAPEDDDITNYPSKLIFQDGLVGQDPIAAELQQAYGTWDIYAMHWIIDGDNWYGYGQQGDGTTKPSFINTFQRGPSESAWKTVPHPCWEEFKWGGRNGFLDLFTVDNSYAKQWRYTAAPDADARAIQAAYFAYIWAKEDGQNLSSLAGKAAKLGDYLRYAHYDKYFKKIGNCIGYQQCQAGSGKNSAHYLISWYFSWGGGLQGDWSWRIGSSHTHTGYQNPLAAWVLSTESAFKPKGSTAVKDWATSLDRQLELFRWLQAAEGCIAGGATNSWQGHYAQPPSDITSFYGMYYDWQPVYHDPPSNNWTGMQGWGMERVCSLYFLSGNEKAGKVCQDWAKWVKNNVRVNGSEVVHATNFSWSGNPDEWKPANFNKSGLNASLHGTVSTEGIDIGSLASIIKGLMWVSMKDGDQEGIDLAVQVMDAIEQYRDDHGYGVEEAREDYAKFNEEVYIPSGWTGKNAQGANIRNGVKFIDIRPKYKQDPDWPQIENFLNGGEAPRFTYHRFWAQTEIAVANGLISIYGLSDGSGVVPTKPGSCAAAIKAQGYKCCSANCEVVYTDADGDWGVENDEWCGCGGGEPECPAAITNQGYPCCSTCGTVYYTDGDGDWGVENGDWCGMPTDC
notes: whole CDS (nt 87-2342 of transcript; protein length 751) cloned; codon-optimised synthetic gene in pET28a(+) NdeI/XhoI, E. coli, purified
Km [1]: 8980 µM | Vmax [1]: 0.357 µmol/min/mg | Km [3]: 30100 µM | Vmax [3]: 0.048 µmol/min/mg

B6: BGL1 (Pecoramyces ruminantium) (protein)
chain: IVKPAADAAADVASDAEVVASDEENPLDNGEDSADDTPKGKLPSDFKWGAATAAYQVEGAWNEEGRGESVWDHFTHLYPKNVESGDRSNKDSTNGNVACDSYHKFDEDIKMMKIMNANHYRFSISWSRLFPDGQAKKVDGEWNVNEAGAQYYDMVIDTLLDNDIIPLATLYHWDLPYALHEKYGGWLDYHSQFDFAKYAEFCFERYGDRVKGWITINEPWVNCVAGYKNGPGKAPYRCTGEAPRKLANDTTGLDLEGGCSYEIGPSQYTKDSEVLPANRPPQKLEDVWCSHNILLGHAQAVKVYREKFQKEQKGLIGITIDGEAQIPWEEPGMSEEEYENNKKYANLAAEFRIGWYSDPVMFGDYPESVKQRNGKDMPVFTDEEKKLLKGSSSDFLGWNTYTSHWAAQVKNEDGSYVEPPTDEEASYDNSKRDMWDDNCKGRGDGWTCIPPTLGSQAGSSWNTKYGPTIRVGLNWFSKRYEGIIKNGIIITENGCAQPNYKVSRANDQVTLDYWKSIGKEEFADTYDEDIIEDESDLEGTLIHDTYRIDWYKQYLENLRLAYVEDGVDVRGYMAWSLVDNFEWENGYETRFGMTYIDFYNDKDLKRVPKDSLTFLGQWYLDNVEQE
Km (purified protein): 164 µM | Vmax (purified protein): 5.41 µmol/min/mg
